Key:
COS-A2 SSX2 = experiment: IFN-γ release, co-culture with COS-A2 SSX2; format: cell-based; conditions: co-cultured with COS-A2 SSX2
Excerpt: (§1) SSX-2 TCR-transduced PBLs were co-cultured with various tumor cell lines. […] FIGS. 4A and 4B, FIG. 11, and Tables 3 and 4 show additional results of PBLs from human donors that were transduced with the SSX-2 TCR of Example 2 when these PBLs were co-cultured with various tumor cells. PBLs that were untransduced (UT) or transduced with a vector comprising SEQ ID NO: 27 (SSX-2 TCR), SEQ ID NO: 29 (codon-optimized SSX-2 TCR), or SEQ ID NO: 30 (codon-optimized SSX-2 TCR including mouse constant region) were co-cultured with various tumor cell lines. Tables 5 and 6 show the resulting interferon-γ levels (pg/ml) measured with respect to PBL from two different donors.

SSX-1 to SSX-10 peptides = experiment: Co-culture with T2 cells pulsed with SSX family peptides; format: cell-based; conditions: peptide-pulsed T2 cells; FIG. 5
Method: The peptides used for pulsing were: SSX-1 (KYSEKISYV, SEQ ID NO: 32) (-♦-); SSX-2 (KASEKIFYV, SEQ ID NO: 2) (▪); SSX-3 (KVSEKIVYV, SEQ ID NO: 8) (▪); SSX-4 (KSSEKIVYV, SEQ ID NO: 9) (X); SSX-5 (KASEKIIYV, SEQ ID NO: 10) ( ? ); SSX-6 (KFSEKISCV, SEQ ID NO: 33) (•); SSX-7 (KSLEKISYV, SEQ ID NO: 34) (|); SSX-8 KYSEKISYV, SEQ ID NO: 32) (-); SSX-9 (KSSEKIIYV, SEQ ID NO: 11) (—); and SSX-10 (KASEKILYV, SEQ ID NO: 12) (--♦--).
Co-culture assays were performed with PBLs transduced with the SSX-2 TCR of Example 2 and peptide-pulsed T2 cells.

H82 = experiment: IFN-γ release, co-culture with H82; format: cell-based; conditions: co-cultured with H82
Excerpt: (§2) SSX-2 TCR-transduced PBLs were co-cultured with various tumor cell lines. […] FIGS. 4A and 4B, FIG. 11, and Tables 3 and 4 show additional results of PBLs from human donors that were transduced with the SSX-2 TCR of Example 2 when these PBLs were co-cultured with various tumor cells.

COS-A2 = experiment: IFN-γ release, TCR-transduced PBL co-cultured with COS-A2; format: cell-based; conditions: for IFN-γ: human donor PBL co-cultured with COS-A2; for interferon-γ levels: co-cultured with Cos-A2
Excerpt: as §1

SK MEL37 = experiment: IFN-γ release, co-culture with SK MEL37 melanoma; format: cell-based; conditions: co-cultured with SK MEL37 (Melanoma)
Excerpt: as §1

MCF7 = experiment: IFN-γ release, co-culture with MCF7; format: cell-based; conditions: co-cultured with MCF7
Excerpt: as §2

COS-A2-SSX2 cells = experiment: CD137 (4-1BB) upregulation after co-culture with COS-A2-SSX2 cells; format: cell-based; conditions: FACS after co-culture with COS-A2-SSX2 cells
OVCAR3 = experiment: IFN-γ release, co-culture with OVCAR3; format: cell-based; conditions: co-cultured with OVCAR3
Excerpt: as §2

K562 = experiment: IFN-γ release, co-culture with K562; format: cell-based; conditions: co-cultured with K562
Excerpt: PBLs that were untransduced (UT) or transduced with a vector comprising SEQ ID NO: 27 (SSX-2 TCR), SEQ ID NO: 29 (codon-optimized SSX-2 TCR), or SEQ ID NO: 30 (codon-optimized SSX-2 TCR including mouse constant region) were co-cultured with various tumor cell lines. Tables 5 and 6 show the resulting interferon-γ levels (pg/ml) measured with respect to PBL from two different donors.

[1] = IFN-γ release, transduced PBL without target cells (medium / T cell alone); format: cell-based, human; conditions: for IFN-γ: MEDIUM, no target cells; for interferon-γ levels: T cell alone
Excerpt: as §1

SKOV3 Ovarian = experiment: IFN-γ release, co-culture with SKOV3 ovarian; format: cell-based; conditions: co-cultured with SKOV3 (Ovarian)
Excerpt: as §1

T331A mel = experiment: IFN-γ release, co-culture with T331A; format: cell-based; conditions: for IFN-γ: co-cultured with T331A; for interferon-γ levels: co-cultured with T331A mel
Excerpt: as §1

SSX-2 = experiment: Tetramer binding of transduced PBL; conditions: human donor-derived PBL; CD4 and CD8 cells
T567A = experiment: IFN-γ release, co-culture with T567A melanoma; format: cell-based; conditions: co-cultured with T567A (Melanoma)
Excerpt: as §2

U251 Glioma = experiment: IFN-γ release, co-culture with U251 glioma; format: cell-based; conditions: co-cultured with U251 (Glioma)
Excerpt: as §1

888 = experiment: IFN-γ release, co-culture with 888; format: cell-based; conditions: co-cultured with 888
Excerpt: as §2

[2] = target: T1, SSX-2: 41-49 (KASEKIFYV) peptide (Homo sapiens, UniProt Q16385); experiment: IFN-γ release, co-culture with T2 cells pulsed with SSX-2: 41-49 peptide; format: cell-based
T1 construct: host or cells: T2 cells (peptide-pulsed)
Excerpt: SSX-2 TCR-transduced PBLs were co-cultured with T2 cells from two human donors, where the T2 cells were pulsed with varying concentrations of the SSX-2: 41-49 (KASEKIFYV) peptide. FIGS. 1A and 1B show the resulting interferon-γ levels (pg/ml) measured. […] The differences between FIGS. 1A and 1B may be due to donor variability.
PBLs that were untransduced (UT) or transduced with a vector comprising SEQ ID NO: 27 (SSX-2 TCR), SEQ ID NO: 29 (codon-optimized SSX-2 TCR), or SEQ ID NO: 30 (codon-optimized SSX-2 TCR including mouse constant region) were co-cultured with T2 cells that were pulsed with an SSX-2 were pulsed with varying concentrations of the SSX-2: 41-49 (KASEKIFYV) (SEQ ID NO: 1) peptide.

938 mel = experiment: IFN-γ release, co-culture with 938; format: cell-based; conditions: for IFN-γ: co-cultured with 938; for interferon-γ levels: co-cultured with 938 mel
Excerpt: as §1

B1: SSX2-TCR-WT: HLA-A2 restricted anti-SSX-2 TCR alpha and beta chains encoded by SEQ ID NO: 27, tested as transduced human PBLs (protein)
chain: MSLSSLLKVVTASLWLGPGIAQKITQTQPGMFVQEKEAVTLDCTYDTSDPSYGLFWYKQPSSGEMIFLIYQGSYDQQNATEGRYSLNFQKARKSANLVISASQLGDSAMYFCAMTSGFGNEKLTFGTGTRLTIIPNIQNPDPAVYQLRDSKSSDKSVCLFTDFDSQTNVSQSKDSDVYITDKTVLDMRSMDFKSNSAVAWSNKSDFACANAFNNSIIPEDTFFPSPESSCDVKLVEKSFETDTNLNFQNLSVIGFRILLLKVAGFNLLMTLRLWSSRAKRSGSGATNFSLLKQAGDVEENPGPMGPGLLHWMALCLLGTGHGDAMVIQNPRYQVTQFGKPVTLSCSQTLNHNVMYWYQQKSSQAPKLLFHYYDKDFNNEADTPDNFQSRRPNTSFCFLDIRSPGLGDAAMYLCATSRGQGGQPQHFGDGTRLSILEDLNKVFPPEVAVFEPSEAEISHTQKATLVCLATGFFPDHVELSWWVNGKEVHSGVSTDPQPLKEQPALNDSRYCLSSRLRVSATFWQNPRNHFRCQVQFYGLSENDEWTQDRAKPVTQIVSAEAWGRADCGFTSVSYQQGVLSATILYEILLGKATLYAVLVSALVLMAMVKRKDF
Question: What does the source list for B1?
Answer: IFN-γ (COS-A2 SSX2; Table 3): 36070 pg/mL; IFN-γ (COS-A2 SSX2; Table 4): 56820 pg/mL; reactivity with SSX family peptides (SSX-1 to SSX-10 peptides): most reactive with the peptide of SSX-2 and also recognizes the peptides of SSX-3, -4, -5, -9, and -10 over the other SSX peptides; IFN-γ (H82; Table 3): 141 pg/mL; IFN-γ (H82; Table 4): 100 pg/mL; IFN-γ (COS-A2; Table 3): 297 pg/mL; IFN-γ (COS-A2; Table 4): 180 pg/mL; interferon-γ levels (COS-A2; Table 5 donor): 2839 pg/mL; interferon-γ levels (COS-A2; Table 6 donor): 460 pg/mL; IFN-γ (SK MEL37; Table 3): 10000 pg/mL; IFN-γ (SK MEL37; Table 4): 9720 pg/mL; IFN-γ (MCF7; Table 3): 0 pg/mL; IFN-γ (MCF7; Table 4): 3 pg/mL; activation marker CD137 (4-1BB) (COS-A2-SSX2 cells): upregulated; IFN-γ (OVCAR3; Table 3): 0 pg/mL; IFN-γ (OVCAR3; Table 4): 21 pg/mL; interferon-γ levels (K562; Table 5 donor): 1969 pg/mL; interferon-γ levels (K562; Table 6 donor): 1807 pg/mL; IFN-γ ([1]; Table 3): 0 pg/mL; IFN-γ ([1]; Table 4): 0 pg/mL; interferon-γ levels ([1]; Table 5 donor): 165 pg/mL; interferon-γ levels ([1]; Table 6 donor): 322 pg/mL; IFN-γ (SKOV3 Ovarian; Table 3): 663 pg/mL; IFN-γ (SKOV3 Ovarian; Table 4): 610 pg/mL; IFN-γ (T331A mel; Table 3): 0 pg/mL; IFN-γ (T331A mel; Table 4): 42 pg/mL; interferon-γ levels (T331A mel; Table 5 donor): 30 pg/mL; interferon-γ levels (T331A mel; Table 6 donor): 58 pg/mL; tetramer binding (SSX-2): tetramer binding; IFN-γ (T567A; Table 3): 10280 pg/mL; IFN-γ (T567A; Table 4): 13245 pg/mL; IFN-γ (U251 Glioma; Table 3): 9770 pg/mL; IFN-γ (U251 Glioma; Table 4): 12025 pg/mL; IFN-γ (888; Table 3): 126 pg/mL; IFN-γ (888; Table 4): 143 pg/mL; recognition of SSX-2: 41-49 peptide (IFN-γ) ([2]; FIG. 10): recognize SSX-2: 41-49 peptide; lowest SSX-2: 41-49 peptide concentration recognized (IFN-γ) ([2]; T2 cells from two human donors pulsed with varying peptide concentrations, FIGS. 1A, 1B): ≤ 0.01 ng/mL; IFN-γ (938 mel; Table 3): 0 pg/mL; IFN-γ (938 mel; Table 4): 0 pg/mL; interferon-γ levels (938 mel; Table 5 donor): 1239 pg/mL; interferon-γ levels (938 mel; Table 6 donor): 1451 pg/mL
